Assays:
MS2 coat protein [1] = test: apparent KD of MS2 coat protein, switch ON state; designed switch direction (-1 OFF switch, 1 ON switch): 1; higher = weaker reporter binding; details: FMN input: 0 or 200 uM; Eterna round: R93 (includes R88 designs)
In short: (§1)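 In 100 mM Tris-HCl pH 7.5 with 80 mM KCl and 4 mM MgCl2, and without or with constant ligand, SNAP-549-labelled MS2 coat protein was titrated in twofold steps from 0.7 or 1.5 nM to 3 µM. Per-step times went from 0.8–1.5 h down to 10–20 min. The RNA switches were transcribed on-chip from Illumina sequencing clusters, and apparent KD is the per-design median of normalised cluster binding-curve fits.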

MS2 coat protein [2] = test: apparent KD of MS2 coat protein, switch OFF state (with FMN for OFF switches, without FMN for ON switches); designed switch direction (-1 OFF switch, 1 ON switch): 1; higher = weaker reporter binding; details: FMN input: 0 or 200 uM; Eterna round: R93 (includes R88 designs)
In short: as §1

Sequence | apparent KD of MS2 coat protein (MS2 coat protein [1]) [nM] | apparent KD of MS2 coat protein (MS2 coat protein [2]) [nM]
AAUGAACAUGAGGAUCACCCAUGUUUUAAUAGUUGAGGAUAUAUGGGUGAAAAUAGCACAGUAGAAGGCGAGUGUA [SameState1 Malc#16] | 144 | 133
AGAAAAAAAACGCAGGAUAUCCAAAAGAAAACAUGAGGAUCACCCAUGUAAAAGAAAAUAAAAUGGGAGAAGGGCGAAAAAAAGA [Mat - Same State 2 - Eli mod - D93] | 9.91 | 18.5
AGAAAACAUGAGGAUCACCCAUGUAGAAACAUGGGAGGAUAUACAAAGACGAAAGUCAAAGUAGAAGGCCUAAAGA [Mat - Same State 1 - Mod - D161] | 207 | 152
AGAAAACAUGAGGAUCACCCAUGUAGAAAUAUGGGAGGAUAUACAAAGACGAAAGUCGAAGUAGAAGGCCUAAAGA [Mat - Same State 1 - Meechl mod - D123] | 22 | 58.7
AGAAAACAUGAGGAUCACCCAUGUGAUAAUAUGGGAGGAUAUACGGAGACGAAAGUCGACGUAGAAGGCCUAAAGA [Garnet 49] | 42.9 | 82.8
AGAAAUAAAAGAGAGGAUAUCUUAAAGAAAACAUGAGGAUCACCCAUGUAAAAGAAAAUAAAAUGGGAGAAGGCUCAUAAUAAAG [JL Skelter Mod 4 In the Red] | 151 | 109
AGAAAUAAAGCAGAGGAUAUCCAAAAGAAAACAUGAGGAUCACCCAUGUAAAAGAAAAUAAAAUGGGAGAAGGCUGCAAAUAAAG | 18.5 | 23.9
AGGAAACAUGAGGAUCACCCAUGUAAAAAAAUGGGAGGAUAUCCGCAUUAAUUAAAUGAAGGAGAAGGCCUAAAAA [71%, Same state of confusion2, 5] | 21.6 | 63.1
AGGAAACAUGAGGAUCACCCAUGUAAAAAAGUGGGAGGAUAUGCGAAAAGAAAAAGAAAAGCAGAAGGCCUAAGAA [62%, Something completely different, 6] | 21.9 | 42.7
AGGAAACAUGAGGAUCACCCAUGUAAAAAUAUGGGAGGAUAUACGAAGACGAAAGAAAAAGUAGAAGGCCUAAAAG [Garnet 14] | 63.6 | 155
AGGAAACAUGAGGAUCACCCAUGUAAAAAUAUGGGAGGAUAUACGAAGACGAAAGUAAGAGUAGAAGGCCUAAAAG [Garnet 9] | 23.9 | 90.6
AGGAAACAUGAGGAUCACCCAUGUAAAAAUAUGGGAGGAUAUACGAAGACGAAAGUGAGAGUAGAAGGCCUAAAAG [Garnet 8] | 30.9 | 87.7
AGGAAACAUGAGGAUCACCCAUGUAAAAAUAUGGGAGGAUAUGCGAAAAGAAACAAAGAAGCAGAAGGCCUAAAAA [75%, Ex sub1, 21] | 21.9 | 66.9
AGGAAACAUGAGGAUCACCCAUGUAAAAGGUGGUUAGGAUAUGCGAUAAUAAAAAUAAUAGCAGAAGGGACAAGAA [Same State of Confusion3 mod Fisker] | 215 | 416
AGGAAACAUGAGGAUCACCCAUGUAAAGAUGGAGGAGGAUAUCGAAAGAAAAGAAAGAAACGAGAAGGCCUAAAAG [59%, Flamingo, 2] | 20.9 | 99.2
AGGAAACAUGAGGAUCACCCAUGUAAGAUAAACACAGGAUAUGCGAAAAGAAACAAAGAAGCAGAAGGGUGAAGAA [75%, Ex5 sub 1, 1] | 20.6 | 35.6
AGGAAACAUGAGGAUCACCCAUGUAUAAAAAUGGAAGGAUAUACUAAGACGAAAGUCAUAGUAGAAGGUCUAAAAA [76%, Meechl, 10] | 16.6 | 20.7
AGGAGACAUGAGGAUCACCCAUGUAGAAGGAUGGGAGGAUAUACAAAGACGAGAGUCAGAGUAGAAGGCCUAGGGA [salish99-ss1-183(!)] | 24.2 | 54.1
AGGAGACAUGAGGAUCACCCAUGUGAGAAGAGGCGAGGAUAUCGAAAGAAAGAAGAGAAACGAGAAGGCGCGAGUA [salish99-SS1-018] | 24.9 | 40.8

Reference: the supplement of paper PMC9170038
